Test results reported in EP4806914A1 (Daicel Corporation, dated 2026).

Target: T1, AAV9 empty capsid (adeno-associated virus serotype 9 (AAV9), Assembled icosahedral particle of about 60 copies of VP1, VP2 and VP3 (nested forms of one cap gene product) with no nuc [CUT])
T1 construct: Assembled viral particle without nucleic acid, adsorbed to a Maxisorp plate; It has the same capsid protein as the full capsid and differs only in the packaged nucleic acid; also called AAV9 empty capsid sample; AAV empty capsids
Test: ELISA, 0.1 ug AAV9 coated on Maxisorp plate, scFv detected with HRP-labeled anti-His-Tag antibody, A450-A650; reference: blank (BSA)

B1: second anti-AAV-scFv [2] (scFv)
scFv: QSLEESGGDLVKPGASLTLTCTASGFSFSSNYWMFWVRQAPGKGLEWIAHIYGGSSGSTYYASWAKGRFTISKTSSTTVTLQMTSLTAADTATYFCATVDNGYSDLKLWGPGTLVTVTSGGGGSGGGGSGGGGSELVLTQTADSVEAGVGGTVTIKCQASQSIRNWLSWYQQKPGQPPKLLISRASTLASGVPSRFSGSGSGTEFTLTISDLECDDGATYYCQSSFYADSGEPAFGGGTEVDIKRSAAAGGGSEQKLISEEDLGGGSHHHHHH
notes: Rabbit-derived scFv from a phage library, purified from E. coli culture supernatant with His MultiTrap FF; also called second anti-AAV full capsid molecule
For B1, the “IE/IB (ratio of ELISA absorbance for the empty capsid sample to that for the blank (BSA))” value was 3.7 ratio.
